Molecular target: CD25 (IL-2Rα) (UniProt P01589)
Assay: cell-based or functional assay

Sequence of UniProt P01589 (P01589 22-272 limits assumed): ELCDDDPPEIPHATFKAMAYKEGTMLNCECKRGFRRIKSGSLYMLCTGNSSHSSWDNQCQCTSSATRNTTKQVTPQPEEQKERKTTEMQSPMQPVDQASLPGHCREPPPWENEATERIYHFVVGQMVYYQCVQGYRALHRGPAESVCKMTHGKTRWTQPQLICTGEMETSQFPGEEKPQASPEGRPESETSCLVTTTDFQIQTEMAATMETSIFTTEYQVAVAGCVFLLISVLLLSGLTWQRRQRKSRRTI

percent of pSTAT5+ cells among Treg (flow cytometry on PBMC, 20 min): 3 log
B1: IC-T6-IC-IL2v (IL2v immunoconjugate) (protein, part only; not given: isotype control Fab and Fc chains, not shown: a dimerising Fc or GST)
chain, part: APASSSTKKTQLQLEHLLLDLQMILNGINNYKNPKLTRMLTAKFAMPKKATELKHLQCLEEELKPLEEVLNGAQSKNFHLRPRDLISNINVIVLELKGSETTFMCEYADETATIVEFLNRWITFAQSIISTLT

From patent US20240392008A1
